Results from patent publication US20260250379A1 (HANGZHOU SUMGEN BIOTECH, published 2026).
Residue numbers refer to the chain shown, from its start. Like-named read-outs stand apart in the source and are kept apart here. One block for each binder: values may come before it.

Experiments:
[1] = target: T1, Human LILRB4/CD85k/ILT3 Protein (ECD, His Tag), Sino Biological (human, UniProt Q8NHJ6 22-259); test: ELISA, human LILRB4 ECD-His coated, HRP goat anti-human IgG Fc, OD450
T1 construct: extracellular domain; It is not tied to this bought protein; also called LILRB4 protein; not shown: His tag

[2] = target: T2, Human LILRB1/CD85/ILT2/ILR1 Protein (ECD, His Tag), Sino Biological (human, UniProt Q8NHL6 24-461); test: ELISA, LILRB family proteins (His tag) coated, antibody at 10 ug/mL, HRP goat anti-human IgG Fc, OD450
T2 construct: extracellular domain; not shown: His tag

[3] = target: T3, Human LILRB2/ILT4/LIR-2 Protein (ECD, His Tag), Sino Biological (human, UniProt Q8N423 22-460); test: as above
T3 construct: extracellular domain; not shown: His tag

[4] = target: T4, Human LILRB3/LIR3/ILT5/CD85a Protein (ECD, His Tag), Sino Biological (human, UniProt O75022 24-443); test: as above
T4 construct: extracellular domain; not shown: His tag

[5] = target: T5, Human LILRB5/CD85c/LIR-8 Protein (ECD, His Tag), Sino Biological (human, UniProt O75023 24-458); test: as above
T5 construct: extracellular domain; not shown: His tag

[6] = target: T6, LILRB4 on LILRB4 effector reporter cells (jurkat-LILRB4) (UniProt Q8NHJ6 22-448); test: cell-based or functional assay
[7] = target: T6, LILRB4 on LILRB4 effector reporter …; test: cell-based or functional assay; remark: listed apart in the source
[8] = target: T6, LILRB4 on LILRB4 effector reporter …; test: cell-based or functional assay; remark: listed apart in the source
[9] = target: human LILRB4 on 293T-hLILRB4 cells (human, UniProt Q8NHJ6 22-448); test: cell-based or functional assay
[10] = target: T7, LILRB4 on human mononuclear leukemia cells THP-1 (human, UniProt Q8NHJ6 22-448); test: flow cytometry on THP-1 cells, PE goat anti-human IgG Fc, MFI
T7 construct: whole, on cells; The protein is endogenous to the cells; also called LILRB4 positive cells THP-1

[11] = target: T1, Human LILRB4/CD85k/ILT3 Protein (ECD, …); test: ELISA, human LILRB4 ECD-His coated, HRP goat anti-human IgG Fc, OD450; remark: listed apart in the source
[12] = target: T8, LILRB4 (Beijing ACROBiosystems, article number LI4-H52H7, 6xHis label) (human, UniProt Q8NHJ6 22-259); test: SPR, BIACORE 8K; antibody captured on Protein A chip, LILRB4-6xHis as analyte
T8 construct: Analyte (mobile phase) in the BIACORE 8K assay; also called Human LILRB4; not shown: 6xHis label
Experimental: A BIACORE 8K biomacromolecule interactor (GE Company) was adopted to analyze the affinity of an antibody. A Series S Sensor Chip Protein A Chip (GE Company) was used for capturing an antibody to be detected, the concentration of the antibody to be detected was set to be 15 μg/mL, and the sample was fed at a speed of 10 μl/min until RU=500; LILRB4 (Beijing ACROBiosystems, article number: LI4-H52H7, 6×His label, and the theoretical molecular weight: 28.2 Kda) was used as a mobile phase, 6 concentration gradients (0.0977 nM-200 nM) were used, and the binding time was 180 sec; and the dissociation time was 300 sec. The result of the affinity of the antibody to be detected is as set forth in follows: […]

T2 sequence (Q8NHL6 24-461): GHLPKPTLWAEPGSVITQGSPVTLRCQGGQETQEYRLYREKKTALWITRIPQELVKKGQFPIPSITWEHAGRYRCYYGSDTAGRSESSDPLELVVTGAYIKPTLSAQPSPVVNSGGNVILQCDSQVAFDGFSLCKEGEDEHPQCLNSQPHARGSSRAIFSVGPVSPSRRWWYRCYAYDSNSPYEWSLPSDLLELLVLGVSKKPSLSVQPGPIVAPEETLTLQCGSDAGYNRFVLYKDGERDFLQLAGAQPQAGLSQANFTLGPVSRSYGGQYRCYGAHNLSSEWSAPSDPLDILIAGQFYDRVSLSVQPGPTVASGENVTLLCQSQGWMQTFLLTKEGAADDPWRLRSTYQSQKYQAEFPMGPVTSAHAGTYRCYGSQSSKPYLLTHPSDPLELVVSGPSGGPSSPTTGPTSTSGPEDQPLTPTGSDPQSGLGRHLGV
T3 sequence (Q8N423 22-460): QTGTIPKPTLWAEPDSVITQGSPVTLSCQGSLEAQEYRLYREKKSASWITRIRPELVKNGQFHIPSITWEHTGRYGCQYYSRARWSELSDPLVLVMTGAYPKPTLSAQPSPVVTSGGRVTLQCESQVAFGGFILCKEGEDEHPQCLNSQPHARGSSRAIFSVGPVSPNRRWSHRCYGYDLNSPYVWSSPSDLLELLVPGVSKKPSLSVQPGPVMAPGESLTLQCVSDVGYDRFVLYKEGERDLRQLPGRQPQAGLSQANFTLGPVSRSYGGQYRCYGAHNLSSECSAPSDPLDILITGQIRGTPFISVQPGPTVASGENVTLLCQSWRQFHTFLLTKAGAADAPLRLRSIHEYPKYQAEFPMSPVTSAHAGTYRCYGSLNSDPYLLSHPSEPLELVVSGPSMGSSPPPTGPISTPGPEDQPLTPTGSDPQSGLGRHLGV
T5 sequence (O75023 24-458): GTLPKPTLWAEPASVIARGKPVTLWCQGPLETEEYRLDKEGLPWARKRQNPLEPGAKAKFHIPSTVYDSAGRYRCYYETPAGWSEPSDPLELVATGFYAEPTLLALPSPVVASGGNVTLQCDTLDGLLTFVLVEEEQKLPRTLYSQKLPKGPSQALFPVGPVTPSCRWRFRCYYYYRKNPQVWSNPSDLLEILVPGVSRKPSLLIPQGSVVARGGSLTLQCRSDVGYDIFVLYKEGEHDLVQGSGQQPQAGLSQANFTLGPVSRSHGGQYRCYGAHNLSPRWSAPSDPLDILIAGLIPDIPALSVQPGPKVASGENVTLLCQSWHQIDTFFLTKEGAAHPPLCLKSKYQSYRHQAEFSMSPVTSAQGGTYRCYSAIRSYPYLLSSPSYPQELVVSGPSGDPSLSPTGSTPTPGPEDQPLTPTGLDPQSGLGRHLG
T4 sequence (O75022 24-443): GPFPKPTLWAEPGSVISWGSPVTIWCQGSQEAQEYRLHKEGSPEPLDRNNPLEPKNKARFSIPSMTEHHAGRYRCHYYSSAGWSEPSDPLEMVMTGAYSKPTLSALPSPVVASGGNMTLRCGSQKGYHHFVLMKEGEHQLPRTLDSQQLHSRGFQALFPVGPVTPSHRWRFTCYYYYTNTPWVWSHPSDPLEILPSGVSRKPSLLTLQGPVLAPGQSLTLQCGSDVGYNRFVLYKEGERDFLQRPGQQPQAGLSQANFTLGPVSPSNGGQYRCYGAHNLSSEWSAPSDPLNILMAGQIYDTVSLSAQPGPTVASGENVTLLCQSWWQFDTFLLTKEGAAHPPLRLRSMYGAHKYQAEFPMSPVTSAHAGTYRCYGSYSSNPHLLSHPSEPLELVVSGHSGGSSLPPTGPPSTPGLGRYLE

B2: chimeric antibody 1A2-7 (antibody, V domains shown)
VH: QVQLQQPGAELVKPGASVKLSCKASGYTFTSYWMHWVKQRPGQGLEWIGEINPSNGRTNYNEKFKSKATLTVDKSSSTAYMQLNSLTSEDSAVYYCARDRYDEGNAMDYWGQGTSVTVSS
VL: DIVMTQTTSSLSASLGDRVTISCRASQDITNYLNWYQQKPDGTVKLLIYYTSRLHSGVPSRFSGSGSGTDYSLTISNLEQEDIATYFCQQGDTLPRTFGGGTKLEIK
EC50 (read off the curve); luciferase RLU, blocking of APOE [6]: ~0.03 ng/mL | EC50 (read off the curve) [1]: ~30 ng/mL | binding result [2]: no binding (tested: 10 ug/mL) | binding result [3]: no binding (tested: 10 ug/mL) | binding result [4]: no binding (tested: 10 ug/mL) | binding result [5]: no binding (tested: 10 ug/mL)

B4: chimeric antibody 3A2-18 (antibody, V domains shown)
VH: B2 VH with Q1E, M81V
VL: B2 VL
notes: Full chains are not tied by name
EC50 (read off the curve); luciferase RLU, blocking of APOE [7]: ~10 ng/mL | EC50 (read off the curve) [1]: ~30 ng/mL | binding result [2]: no binding (tested: 10 ug/mL) | binding result [3]: no binding (tested: 10 ug/mL) | binding result [4]: no binding (tested: 10 ug/mL) | binding result [5]: no binding (tested: 10 ug/mL)

B5: humanized antibody RB4-G1-018 (antibody, human IgG1, kappa, V domains shown)
VH: QVQLVQSGAEVKKPGASVKVSCKASGYTFTSYWMHWVRQAPGQGLEWIGEINPSNGRTNYNEKFKSRATLTVDKSTSTAYMELSSLRSEDTAVYYCARDRYDEGNAMDYWGQGTTVTVSS
VL: DIQMTQSPSSLSASVGDRVTITCRASQDITNYLNWYQQKPGKAPKLLIYYTSRLHSGVPSRFSGSGSGTEYTLTISSLQPDDFATYYCQQGDTLPRTFGQGTRLEIKR
EC50 (read off the curve); luciferase RLU, blocking of APOE [8]: ~10 ng/mL | EC50 (read off the curve); ADCC reporter induction multiple [9]: ~60 ng/mL | EC50 (read off the curve) [10]: ~30 ng/mL | EC50 (read off the curve) [11]: ~30 ng/mL | Kd [12]: 2.81 nM | koff [12]: 0.00433 s⁻¹ | kon [12]: 1.54e+06 M⁻¹ s⁻¹

Results, then the binder that gave them:

EC50 (read off the curve) [1]: ~50 ng/mL | binding result [2]: no binding (tested: 10 ug/mL) | binding result [3]: no binding (tested: 10 ug/mL) | binding result [4]: no binding (tested: 10 ug/mL) | binding result [5]: no binding (tested: 10 ug/mL)
B1: chimeric antibody 5E11-2 (antibody, V domains shown)
VH: EVKLEESGGGLVQPGGSMKLSCAASGFTFSDAWMDWVRQSPEKGLEWVAEIRSKPNNHATYYAESVKGRFTISRDDSKSSVYLQMNSLRAEDTGIYYCTRTTDYSMDYWGQGTSVTVSS
VL: DIQMTQSPASLAVSLGQRATISCRASQSVSASSYSYMHWYQQKPGQPPKLLIKYASNLQSGVPARFSGSGSGTDFTLNIHPVEEEDSATYYCQHSWEIPRTFGGGTKLEIK
notes: as for B4

EC50 (read off the curve) [1]: ~20 ng/mL | binding result [2]: no binding (tested: 10 ug/mL) | binding result [3]: no binding (tested: 10 ug/mL) | binding result [4]: no binding (tested: 10 ug/mL) | binding result [5]: no binding (tested: 10 ug/mL)
B3: chimeric antibody 3G9-1 (antibody, V domains shown)
VH: QVQLQQPGAELVKPGASVKLSCKASGYTFTSYWMHWVKQRPGQGLEWIGEINPSNGRTNYNEKFKSKATLIVDKSSSTAYMQLSSLTSEDSAVYYCARGIYYGYDYAMDYWGQGTSVTVSS
VL: B2 VL with V3Q, Q6H, T30S, D92N, R96P
notes: as for B4

EC50 (read off the curve); luciferase RLU, blocking of APOE [8]: ~20 ng/mL | EC50 (read off the curve); ADCC reporter induction multiple [9]: ~50 ng/mL | EC50 (read off the curve) [10]: ~40 ng/mL | EC50 (read off the curve) [11]: ~30 ng/mL | Kd [12]: 2.33 nM | koff [12]: 0.00418 s⁻¹ | kon [12]: 1.8e+06 M⁻¹ s⁻¹
B6: humanized antibody RB4-G1-022 (antibody, human IgG1, kappa, V domains shown)
VH: B5 VH
VL: B5 VL with E70D, L73F, D81E, F83I

EC50 (read off the curve); luciferase RLU, blocking of APOE [8]: ~10 ng/mL | EC50 (read off the curve); ADCC reporter induction multiple [9]: ~60 ng/mL | EC50 (read off the curve) [10]: ~30 ng/mL | EC50 (read off the curve) [11]: ~30 ng/mL | Kd [12]: 2.77 nM | koff [12]: 0.00343 s⁻¹ | kon [12]: 1.24e+06 M⁻¹ s⁻¹
B7: humanized antibody RB4-G1-019 (antibody, human IgG1, kappa, V domains shown)
VH: B5 VH with I48M, A68V, A79V
VL: B5 VL

EC50 (read off the curve); luciferase RLU, blocking of APOE [8]: ~20 ng/mL | EC50 (read off the curve); ADCC reporter induction multiple [9]: ~60 ng/mL | EC50 (read off the curve) [10]: ~30 ng/mL | EC50 (read off the curve) [11]: ~30 ng/mL | Kd [12]: 3.29 nM | koff [12]: 0.00834 s⁻¹ | kon [12]: 2.53e+06 M⁻¹ s⁻¹
B8: humanized antibody RB4-G1-020 (antibody, human IgG1, kappa, V domains shown)
VH: B5 VH with I48M, A68V, L70M, V72R, K74T, A79V
VL: B5 VL
